In US20250027068A1:

Each binder was assayed against pooled human IgG (human) (assay: cell-based or functional assay).

Binder | Enzyme Activity Endpoint Assay: Fab′2 | Enzyme Activity Endpoint Assay: Fc | Enzyme Activity Endpoint Assay: IgG | Enzyme Activity Endpoint Assay: scIgG
VRT-30 (Fc fusion) QITSVWTKGVTPPTPEQFRYNNEDVIHAPYLANQGWYDITKTFNGKDNLLCGAATAGNMLHWWFDQNKTEIEAYLSKHPEKQKIIFNNQELFDLKAAIDTKDSQTNSQLFNYFRDKAFPGLSARQLGVFPDLVLDMFINGYYLNVFKTQSTDVNRPYQDKDKRGGIFDAVFTRGVQTTLLTARHDLKNKTLNDISTLIKQELTEGKALALSHTYANVRISHVINLWGADFNAEGNLEAIYVTDSDANASIGMKKYFVGVNAHGKVAISAKKIEGENIGAQVLGLFTLSSGKDIWQKLSDKTHTCPPCPAPEAAGAPSVFLFPPKPKDTLMISRTPEVTCVVVDVSHEDPEVKFNWYVDGVEVHNAKTKPREEQQNSTYRVVSVLTVLHQDWLNGKEYKCKVSNKALKAPIEKTISKAKGQPREPQVYTLPPSRDELTKNQVSLTCLVKGFYPSDIAVEWESNGQPENNYKTTPPVLDSDGSFFLYSKLTVDKSRWQQGNVFSCSVMHEALHNHYTQKSLSLSPG | 0 ng/µL | 46 ng/µL | 986 ng/µL | 22 ng/µL
VRT-31 (Fc fusion) QITSVWTKGVTPLTPEQFRYNNEDVIHAPYLANQGWYDITKTFNGKDNLLCGAATAGNMLHWWFDQNKTEIEAYLKKHPEKQKIIFNNQELFDLKAAIDTKDSQTNSQLFNYFRDKAFPGLSARQLGVFPDLVLDMFINGYYLNVFKTQSTDVNRPYQDKDKRGGIFDAVFTRGVQTTLLTARHDLKNKGLNEISTLIKQELTEGKALALSHTYANVRISHVINLWGADFNAEGNLEAIYVTDSDSNASIGMKKYFVGVNAHGKVAISAKKIEGENIGAQVLGLFTLSSGKDIWQKLSDKTHTCPPCPAPEAAGAPSVFLFPPKPKDTLMISRTPEVTCVVVDVSHEDPEVKFNWYVDGVEVHNAKTKPREEQQNSTYRVVSVLTVLHQDWLNGKEYKCKVSNKALKAPIEKTISKAKGQPREPQVYTLPPSRDELTKNQVSLTCLVKGFYPSDIAVEWESNGQPENNYKTTPPVLDSDGSFFLYSKLTVDKSRWQQGNVFSCSVMHEALHNHYTQKSLSLSPG | 0 ng/µL | 27 ng/µL | 1020 ng/µL | 21 ng/µL
VRT-32 (Fc fusion) QITSVWTKGVTPPTPEQFRYNNEDVFHAPYTAHQGWYDITKTFDGKDNLLCGAATAGNMLHWWFDQNKTEIEAYLSKHPEKQKIIFNNQELFDLKAAIDTKDSQTNSALFNYFRDKAFPGLSARQLGVFPDLVLDMFINGYYLNVFKTQSTDVNRPYQDKDKRGGIFDAVFTRGVQTTLLTARHDLKNKTLNDISTIIKQELTEGRALALSHTYANVRISHVINLWGADFNAEGNLEAIYVTDSDSNASIGMKKYFVGVNASGKVAISAKKIEGENIGAQVLGLFTLSSGKDIWQKLSDKTHTCPPCPAPEAAGAPSVFLFPPKPKDTLMISRTPEVTCVVVDVSHEDPEVKFNWYVDGVEVHNAKTKPREEQQNSTYRVVSVLTVLHQDWLNGKEYKCKVSNKALKAPIEKTISKAKGQPREPQVYTLPPSRDELTKNQVSLTCLVKGFYPSDIAVEWESNGQPENNYKTTPPVLDSDGSFFLYSKLTVDKSRWQQGNVFSCSVMHEALHNHYTQKSLSLSPG | 0 ng/µL | 96 ng/µL | 803 ng/µL | 79 ng/µL
VRT-33 (Fc fusion) SQTEDSESLQRLRDIEDFQAEKKKQNVVYTKWLDGVDVKDHDFRKIVDGNIAYYATPLLNGRGFYDINKDFNRDNDKCAAAVAANMFHYWLDRNRDNVDRFLRQNPEKHGIIELPDGQLKLSDFLNTYESDDGYRDKSKLFDFISNNFNGPVWTDKLLDNYINGYAYNYKYGRTIEDSTKNTSKINFFKEVFNEKILTNNHSIRNQNEFSVLLSEALYTGKAIGLSYGPAGLRHSLGHIISVWGADLDADGNVVAIYVTDSDDKKLTIGDERVGLKRYKISTDDEGRLRLTAYEETHNTGGQIRGLWTLDTGKQAWADYFDKTEQTGTDQAEQDKTHTCPPCPAPEAAGAPSVFLFPPKPKDTLMISRTPEVTCVVVDVSHEDPEVKFNWYVDGVEVHNAKTKPREEQQNSTYRVVSVLTVLHQDWLNGKEYKCKVSNKALKAPIEKTISKAKGQPREPQVYTLPPSRDELTKNQVSLTCLVKGFYPSDIAVEWESNGQPENNYKTTPPVLDSDGSFFLYSKLTVDKSRWQQGNVFSCSVMHEALHNHYTQKSLSLSPG | 0 ng/µL | 5 ng/µL | 1040 ng/µL | 21 ng/µL
VRT-34 (Fc fusion) SQTEDSESLQRLRDIEDFQAEKKKQNVVYTKWLDGVDVKDHDFRKIVDGNIAYYATPLLNGRGFYDINKDFNRDNDKCAAAVAANMFHYWLDINRDNVDRFLRQNPEKHGIIELPDGQLKLSDFLNTYESDHGYRDKSKLFDFISNNFNGPVWTDKLLDNYINGYAYNYKYGRTIEDSTKNTSKINFFKEVFNEKILTNNHSIRNQNEFSVLLSEALYTGKAIGLSYGPAGLRHSLGHIISVWGADLDADGNVVAIYVTDSDDKKLTIGDERVGLKRYKISTDDEGRLRLTAYEETHNTGGQIRGLWTLDTGKQAWADYFDKTEQTGTDQAEQDKTHTCPPCPAPEAAGAPSVFLFPPKPKDTLMISRTPEVTCVVVDVSHEDPEVKFNWYVDGVEVHNAKTKPREEQQNSTYRVVSVLTVLHQDWLNGKEYKCKVSNKALKAPIEKTISKAKGQPREPQVYTLPPSRDELTKNQVSLTCLVKGFYPSDIAVEWESNGQPENNYKTTPPVLDSDGSFFLYSKLTVDKSRWQQGNVFSCSVMHEALHNHYTQKSLSLSPG | 0 ng/µL | 5 ng/µL | 1020 ng/µL | 20 ng/µL
VRT-35 (Fc fusion) VTSVWTKGVTPPANFTQGEDVFHAPYKANQGWYDITKTFNRKDNLLCGAATAGNMLHWWFDQNKDQIEAYLKEHPEKQKINFKGEQLFDVKEAIDTKDDQTNSKLFEYFKEKAFPYLSTKHLGVFPDHVLDMFINGYRLSLTNHGPTPVKEGSKDKRGGIFDAVFTRGVQSKLLTSRHDFKEKTLKEISDLIKQELTEGKALALSHTYANVRINHVINLWGADFDSNGNLEAIYVTDSDTEASIGMKKYFVGVNKAGKVAISAKEIEDDNIGAQVLGLFTLSTGQDIWNQTNDKTHTCPPCPAPEAAGAPSVFLFPPKPKDTLMISRTPEVTCVVVDVSHEDPEVKFNWYVDGVEVHNAKTKPREEQQNSTYRVVSVLTVLHQDWLNGKEYKCKVSNKALKAPIEKTISKAKGQPREPQVYTLPPSRDELTKNQVSLTCLVKGFYPSDIAVEWESNGQPENNYKTTPPVLDSDGSFFLYSKLTVDKSRWQQGNVFSCSVMHEALHNHYTQKSLSLSPG | 0 ng/µL | 25 ng/µL | 1020 ng/µL | 22 ng/µL
VRT-36 (Fc fusion) VTSVWTKGVTPPANFTQGEDVFHAPYVANQGWYDITKTFNRKDNLLCGAATAGNMLHWWFDQNKDQIERYLKEHPEKQKINFKGEQLFDVKEAIDTKDSQTDSKLFEYFKEKAFPYLSTKHLGVFPDHVLDMFINGYRLSLTNHGPTPVKEGSKDKRGGIFDAVFTRGVQSKLLTSRHDFKEKTLKEISDLIKQELTEGKALGLSHTYANVRINHVINLWGADFDSEGNLKAIYVTDSDTEASIGMKKYFVGVNKAGKVAISAKEIKEDNIGAQVLGLFTLSTGQDIWNQTNDKTHTCPPCPAPEAAGAPSVFLFPPKPKDTLMISRTPEVTCVVVDVSHEDPEVKFNWYVDGVEVHNAKTKPREEQQNSTYRVVSVLTVLHQDWLNGKEYKCKVSNKALKAPIEKTISKAKGQPREPQVYTLPPSRDELTKNQVSLTCLVKGFYPSDIAVEWESNGQPENNYKTTPPVLDSDGSFFLYSKLTVDKSRWQQGNVFSCSVMHEALHNHYTQKSLSLSPG | 0 ng/µL | 112 ng/µL | 1030 ng/µL | 62 ng/µL
VRT-37 (Fc fusion) VTSVWTKGVTPPTNFTYGEDVLHAPYVANQGWYDITKTFNRKDNLLCGAATAGNMLHWWFDQNKEQIENYLKKHPEKQKINFKGEQLFDVKEAIDTKDSQLDSKLFEYFKEKAFPYLSTKHLGVFPDHVIDMFINGYRLSLTNHGPTPVKRGSKDKRGGIFDAVFTRGVQSKLLTNRHDFKEKTLKEISDLIKQELTEGKALGISHTYANVRINHVINLWGADFDAEGNLEAIYVTDSDTEASIGMKKYFVGVNKNGKVAISAKEIEEDNIGAQVLGLFTLSTGQDIWNQTNDKTHTCPPCPAPEAAGAPSVFLFPPKPKDTLMISRTPEVTCVVVDVSHEDPEVKFNWYVDGVEVHNAKTKPREEQQNSTYRVVSVLTVLHQDWLNGKEYKCKVSNKALKAPIEKTISKAKGQPREPQVYTLPPSRDELTKNQVSLTCLVKGFYPSDIAVEWESNGQPENNYKTTPPVLDSDGSFFLYSKLTVDKSRWQQGNVFSCSVMHEALHNHYTQKSLSLSPG | 0 ng/µL | 101 ng/µL | 854 ng/µL | 38 ng/µL
VRT-38 (Fc fusion) VTSVWTKGVTPPADFTQGEDVFHAPYVANQGWYDITKTFNRKDNLLCGAATAGNMLHWWFDQNKEYIEAYLKKHPEKQKIIFGDQELLDVRKAINTKGSQKNSELFNYFRDKAFPNLSARRLGVFPDLVLDMFINGYYLNVTKTQTTDVNRTYQEKDKRGGIFDAVFTRGVQSKLLTSRHDFKEKGLKEISDLIKQELTEGKALGLSHTYANVRINHVINLWGADFDSDGNLKAIYVTDSDTRASIGMKKYFVGVNAAGKVAISAKEIKEDNIGAQVLGLFTLSTGQDIWNQTNDKTHTCPPCPAPEAAGAPSVFLFPPKPKDTLMISRTPEVTCVVVDVSHEDPEVKFNWYVDGVEVHNAKTKPREEQQNSTYRVVSVLTVLHQDWLNGKEYKCKVSNKALKAPIEKTISKAKGQPREPQVYTLPPSRDELTKNQVSLTCLVKGFYPSDIAVEWESNGQPENNYKTTPPVLDSDGSFFLYSKLTVDKSRWQQGNVFSCSVMHEALHNHYTQKSLSLSPG | 0 ng/µL | 27 ng/µL | 990 ng/µL | 20 ng/µL
